Legend:
human IL-4Rα on cells [1] = target: T1, human IL-4Rα on cells (human, UniProt P24394 26-825); assay: cell-based or functional assay
[2] = target: T2, recombinant human IL-4Rα (extracellular domain, tagged) (human, UniProt P24394 26-232); assay: SPR, Biacore T200; antibody (human IgG4) on the sensor chip, human IL-4Rα at 0.625-12.5 nM
T2 construct: it is written second here only for want of that; also called hIL-4Rα; not shown: His-tag or other conventionally used tag
Method: The binding affinity of the anti-IL-4Rα antibodies (reformatted as human IgG4) to human IL-4Rα was characterized using Biacore T200 (GE). The full-length anti-IL-4Rα antibodies were stabilized on sensor chip CMS. The affinities for human IL-4Rα at various concentrations were measured. […] Using the SPR technology, the association and dissociation rates were measured, and binding affinity was determined.

human IL-4Rα on cells [3] = target: T1, human IL-4Rα on cells; assay: cell-based or functional assay; remark: listed apart in the source
IL-4R with mouse Fc-tag = target: T3, IL-4R with mouse Fc-tag (human, UniProt P24394 26-232); assay: competitive ELISA: antibody dilutions with 0.5 µg/mL IL-4R-mouse Fc on plate-captured biotinylated IL-4, anti-mouse-Fc-HRP
T3 construct: not shown: mouse Fc-tag
Method: Competitive ELISA: The second assay was designed to identify the anti-IL-4Rα antibodies that were capable of inhibiting the binding of hIL-4 to hIL-4Rα, as measured by competitive ELISA. Briefly, a 96-well plate was coated with 100 μL, 2.5 μg/mL SA (Streptavidin) solution, and incubated overnight at 4° C., followed by washed with TBST. Biotinylated IL-4 with the final concentration of 2 μg/mL was added into the plate and incubated at 37° C. for 1 hour. Then the plate was washed with TBST. The anti-IL-4Rα antibody samples were first diluted to 10 μg/mL, and 1004, of the sample was added to the first row of wells. 10 μg/mL anti-IL-4Rα antibody samples were then serially diluted at a 1:2 ratio and added to each of the remaining rows of wells. 504 of 0.5 μg/mL IL-4R with mouse Fc-tag was added to each well. After incubating for 1 hour at 37° C., the wells were washed with TBST 6 times. 100 µL of anti-mouse-Fc-HRP (1:10,000) was then added to each well and incubated for 1 hour at 37° C. The wells were washed with TBST 6 times before adding 1004/well of TMB, and incubated for 5-10 minutes at 37° C. 2M H₂SO₄ was used to stop the reaction. The ELISA results (OD450) were read, and the binding curves were generated by GraphPad Prism 5 software (GraphPad Software). Reference antibody Dupilumab (Regeneron, anti-IL-4Rα antibody) and AMG317 (Amgen, anti-IL-4Rα antibody) were used as positive controls, Human IgG4, kappa Isotype Control (Cat #HG4K, Sino Biological Inc.) was used as negative control, abbreviated as Human IgG4 in FIG. 1.

IC50(nM), neutralization of hIL-4 (1.2 ng/ml), HEK-Blue IL-4/IL-13 STAT6-SEAP reporter cells (human IL-4Rα on cells [1]) [nM] | Kd [2] [nM] | koff [2] [s⁻¹] | kon [2] [M⁻¹ s⁻¹] | IC50(nM), neutralization of hIL-13 (4 ng/ml), HEK-Blue IL-4/IL-13 STAT6-SEAP reporter cells (human IL-4Rα on cells [3]) [nM] | IC50 (IL-4R with mouse Fc-tag) [µg/mL] | Binder
17.9 | 17.6 | 0.0127 | 719000 | – | – | C27 (antibody, human IgG4, V domains shown, also called parent antibody C27; lead parent antibody) VH: EVQLLESGGGLVQPGGSLRLSCAASGFTLSSYAMHWVRQAPGKGLEYVSGISSNGGSTYYANSVKGRFTISRDNPKNTLFLQMSSLRAEDTAVYYCVRVKVGYRGGMDVWGQGTTVTVSS VL: ETTLTQSPDTLPLSPGDRASLSCRASQSVSSAYLAWYQQKPGQAPRLLIYGTSRRATGVPGRFSGSGSGTDFTLTISRLEPEDFAVYYCQLYGSSSVTFGQGTKLEIK
0.076 | – | – | – | – | – | C27-67-67 (antibody, human IgG4, V domains shown) VH: EVQLLESGGGLVQPGGSLRLSCAASGFTLSSYAMHWVRQAPGKGLEYVSGISPTSASTYYANSVKGRFTISRDNPKNTLFLQMSSLRAEDTAVYYCVRVKGRYRGGMDVWGQGTTVTVSS VL: EIVLTQSPGTLSLSPGERATLSCRASQGVSSAYLAWYQQKPGQAPRLLIYGTSRRATGIPDRFSGSGSGTDFTLTISRLEPEDFAVYYCQLYGRSSVTFGQGTKLEIK
0.41 | – | – | – | – | – | C27-58-58 (antibody, human IgG4, V domains shown) VH: EVQLLESGGGLVQPGGSLRLSCAASGFTLSSYAMHWVRQAPGKGLEYVSGISPSSNSTYYANSVKGRFTISRDNPKNTLFLQMSSLRAEDTAVYYCVRVKVRYRGGMDVWGQGTTVTVSS VL: EIVLTQSPGTLSLSPGERATLSCRASQDISSAYLAWYQQKPGQAPRLLIYGTSRRATGIPDRFSGSGSGTDFTLTISRLEPEDFAVYYCQLYGATSVTFGQGTKLEIK
0.476 | – | – | – | – | – | C27-52-52 (antibody, human IgG4, V domains shown) VH: EVQLLESGGGLVQPGGSLRLSCAASGFTLSSYAMHWVRQAPGKGLEYVSGISSSGSSTYYANSVKGRFTISRDNPKNTLFLQMSSLRAEDTAVYYCVRVKPAYRGGMDVWGQGTTVTVSS VL: EIVLTQSPGTLSLSPGERATLSCRASQGVSTAYLAWYQQKPGQAPRLLIYGTSRRATGIPDRFSGSGSGTDFTLTISRLEPEDFAVYYCQLYGATSVTFGQGTKLEIK
0.293 | – | – | – | – | – | C27-53-53 (antibody, human IgG4, V domains shown) VH: EVQLLESGGGLVQPGGSLRLSCAASGFTLSSYAMHWVRQAPGKGLEYVSGISSNGGSTYYANSVKGRFTISRDNPKNTLFLQMSSLRAEDTAVYYCVRVFVRYRGGMDVWGQGTTVTVSS VL: EIVLTQSPGTLSLSPGERATLSCRASQDASNAYLAWYQQKPGQAPRLLIYGTSRRATGIPDRFSGSGSGTDFTLTISRLEPEDFAVYYCQLYGSSSVTFGQGTKLEIK
0.34 | – | – | – | – | – | C27-54-54 (antibody, human IgG4, V domains shown) VH: EVQLLESGGGLVQPGGSLRLSCAASGFTLSSYAMHWVRQAPGKGLEYVSGISHSGTSTYYANSVKGRFTISRDNPKNTLFLQMSSLRAEDTAVYYCVRVRVLYRGGMDVWGQGTTVTVSS VL: EIVLTQSPGTLSLSPGERATLSCRASQDVSSAYLAWYQQKPGQAPRLLIYGTSRRATGIPDRFSGSGSGTDFTLTISRLEPEDFAVYYCQLYGATSVTFGQGTKLEIK
0.103 | 3.62 | 0.000416 | 115000 | – | – | C27-78-78 (antibody, human IgG4, V domains shown) VH: EVQLLESGGGLVQPGGSLRLSCAASGFTLSSYAMHWVRQAPGKGLEYVSGISPSSASTYYANSVKGRFTISRDNPKNTLFLQMSSLRAEDTAVYYCVRVKSKYRGGMDVWGQGTTVTVSS VL: EIVLTQSPGTLSLSPGERATLSCRASQSISTAYLAWYQQKPGQAPRLLIYGTSRRATGIPDRFSGSGSGTDFTLTISRLEPEDFAVYYCQLYGASSVTFGQGTKLEIK
0.283 | 3.67 | 0.000557 | 152000 | – | – | C27-82-58 (antibody, human IgG4, V domains shown) VH: EVQLLESGGGLVQPGGSLRLSCAASGFTLSSYAMHWVRQAPGKGLEYVSGISGNSASTYYANSVKGRFTISRDNPKNTLFLQMSSLRAEDTAVYYCVRVKLKYRGGMDVWGQGTTVTVSS VL: EIVLTQSPGTLSLSPGERATLSCRASQDISSAYLAWYQQKPGQAPRLLIYGTSRRATGIPDRFSGSGSGTDFTLTISRLEPEDFAVYYCQLYGATSVTFGQGTKLEIK
0.0537 | 2.12 | 0.00017 | 80400 | 0.0446 | 0.0781 | C27-6-33 (antibody, human IgG4, V domains shown) VH: EVQLLESGGGLVQPGGSLRLSCAASGFTLSSYAMHWVRQAPGKGLEYVSGISPSGSSTYYANSVKGRFTISRDNPKNTLFLQMSSLRAEDTAVYYCVRSKVRYRGGMDVWGQGTTVTVSS VL: EIVLTQSPGTLSLSPGERATLSCRASQGISSAYLAWYQQKPGQAPRLLIYGTSRRATGIPDRFSGSGSGTDFTLTISRLEPEDFAVYYCQLYGATSVTFGQGTKLEIK
0.125 | 2.56 | 0.000351 | 137000 | – | – | C27-36-36 (antibody, human IgG4, V domains shown) VH: EVQLLESGGGLVQPGGSLRLSCAASGFTLSSYAMHWVRQAPGKGLEYVSGISPSGVSTYYANSVKGRFTISRDNPKNTLFLQMSSLRAEDTAVYYCVRVKVKYRGGMDVWGQGTTVTVSS VL: EIVLTQSPGTLSLSPGERATLSCRASQNISTAYLAWYQQKPGQAPRLLIYGTSRRATGIPDRFSGSGSGTDFTLTISRLEPEDFAVYYCQLYGATSVTFGQGTKLEIK
0.15 | 2.38 | 0.000201 | 84500 | – | – | C27-56-56 (antibody, human IgG4, V domains shown) VH: EVQLLESGGGLVQPGGSLRLSCAASGFTLSSYAMHWVRQAPGKGLEYVSGISPSSTSTYYANSVKGRFTISRDNPKNTLFLQMSSLRAEDTAVYYCVRVKVLYRGGMDVWGQGTTVTVSS VL: EIVLTQSPGTLSLSPGERATLSCRASQSVSSAYLAWYQQKPGQAPRLLIYGTSRRATGIPDRFSGSGSGTDFTLTISRLEPEDFAVYYCQLYGASSVTFGQGTKLEIK
0.0853 | 2.47 | 0.000379 | 154000 | – | – | C27-55-55 (antibody, human IgG4, V domains shown) VH: EVQLLESGGGLVQPGGSLRLSCAASGFTLSSYAMHWVRQAPGKGLEYVSGISPTGGSTYYANSVKGRFTISRDNPKNTLFLQMSSLRAEDTAVYYCVRVKGRYRGGMDVWGQGTTVTVSS VL: EIVLTQSPGTLSLSPGERATLSCRASQNISTAYLAWYQQKPGQAPRLLIYGTSRRATGIPDRFSGSGSGTDFTLTISRLEPEDFAVYYCQLYGTSSVTFGQGTKLEIK
0.195 | 3.74 | 0.000447 | 119000 | – | – | C27-33-33 (antibody, human IgG4, V domains shown) VH: EVQLLESGGGLVQPGGSLRLSCAASGFTLSSYAMHWVRQAPGKGLEYVSGISSSGSSTYYANSVKGRFTISRDNPKNTLFLQMSSLRAEDTAVYYCVRVKVAYRGGMDVWGQGTTVTVSS VL: EIVLTQSPGTLSLSPGERATLSCRASQGISSAYLAWYQQKPGQAPRLLIYGTSRRATGIPDRFSGSGSGTDFTLTISRLEPEDFAVYYCQLYGATSVTFGQGTKLEIK
0.0632 | 1.86 | 0.000173 | 92700 | 0.0482 | 0.0632 | C27-24-56 (antibody, human IgG4, V domains shown) VH: EVQLLESGGGLVQPGGSLRLSCAASGFTLSSYAMHWVRQAPGKGLEYVSGISPTSGSTYYANSVKGRFTISRDNPKNTLFLQMSSLRAEDTAVYYCVRVKVRYRGGMDVWGQGTTVTVSS VL: EIVLTQSPGTLSLSPGERATLSCRASQSVSSAYLAWYQQKPGQAPRLLIYGTSRRATGIPDRFSGSGSGTDFTLTISRLEPEDFAVYYCQLYGASSVTFGQGTKLEIK
0.138 | 5.6 | 0.00078 | 139000 | – | – | C27-Y2-Y2 (antibody, human IgG4, V domains shown) VH: EVQLLESGGGLVQPGGSLRLSCAASGFTLSSYAMHWVRQAPGKGLEYVSGISYSSASTYYANSVKGRFTISRDNPKNTLFLQMSSLRAEDTAVYYCVRVKVRYRGGMDVWGQGTTVTVSS VL: EIVLPQSPGTLSLSPGERATLSCRASQGVSSAYLAWYQQKPGQAPRLLIYGTSRRATGIPDRFSGSGSGTDFTLTISRLEPEDFAVYYCQLYGSTSVTFGQGTKLEIK
